The assay concerns the target human IL-12, IL-23, IL-12p40. Description: SPR.

Drawing on patent US20110262445A1, this text covers Kd for 1 molecule.

B1: Antibody 1 (antibody, human IgG1, kappa, V domains shown)
VH: EVQLQQSGADLVRSGASIKLSCTASGFNIKDYYMHWVKQRPEQGLEWIGWIDPENGDTEYAPKFQGKATMTADTSSNTAYLQLSSLTSEDTAVYYCNACKELRYFDVWGAGTTVTVSS
VL: DIVLTQSPATLSVTPGDSVSLSCRASQSISINLHWYQQKSHESPRLLIKFASQSISGIPSRFSGYGSGTDFTLSINSVETEDFGRYFCQQSNSWPLTFGAGTKLELKR
As to B1, the Kd fell in the range of 0.04 to 0.07 nM.
